The source of these data is publication PMC5739284 (Nature microbiology, 2017).

For this test, the target named is GST-His6-LC3B (recombinant) (human, UniProt Q9GZQ8 1-120). In words: pull-down.

Take SGGDDDWTHLSSK [synthetic p62 LIR peptide]: the binding result is given as “binds”.
